Experimental data published in patent US20160083466A1 (Regeneron, published 2016).

T1: human IL-25 expressed with a C-terminal myc-myc-hexahistidine tag (human)
T1 construct: also called human IL-25-MMH; hIL-25-MMH
T1 chain: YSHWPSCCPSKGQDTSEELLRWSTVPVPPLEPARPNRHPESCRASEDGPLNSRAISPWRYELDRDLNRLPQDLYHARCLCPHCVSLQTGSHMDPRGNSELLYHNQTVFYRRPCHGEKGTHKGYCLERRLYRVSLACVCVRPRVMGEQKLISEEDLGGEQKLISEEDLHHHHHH

T2: monkey IL-25 expressed with a C-terminal myc-myc-hexahistidine tag (M. fascicularis (cynomolgus monkey))
T2 construct: also called monkey IL-25-MMH; MfIL-25-MMH
T2 chain: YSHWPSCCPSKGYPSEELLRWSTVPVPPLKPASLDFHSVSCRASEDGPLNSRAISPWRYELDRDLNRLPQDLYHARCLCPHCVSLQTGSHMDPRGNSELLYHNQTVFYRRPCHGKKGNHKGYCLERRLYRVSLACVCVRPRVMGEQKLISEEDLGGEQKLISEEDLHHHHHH


How the values were obtained:
[1] = biological target: T1, human IL-25 expressed with a C-terminal …; assay: SPR Biacore, captured mAb, 37°C
Description: (§1) Equilibrium dissociation constants (KD values) for IL-25 binding to purified anti-IL-25 antibodies were determined using a real-time surface plasmon resonance biosensor assay on a Biacore 4000 instrument (GE Healthcare). […] All the IL-25 reagents were expressed with a C-terminal myc-myc-hexahistidine tag (referred to herein as “IL-25-MMH”). […] Kinetic association (kₐ) and dissociation (kd) rate constants were determined by fitting the real-time sensorgrams to a 1:1 binding model using Scrubber 2.0c curve fitting software.

[2] = biological target: T1, human IL-25 expressed with a C-terminal …; assay: SPR Biacore, captured mAb, 25°C;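 on 100 nM Human IL-25-MMH Bound (RU): biacore 4000 SPR with IL-25-MMH as analyte over purified anti-IL-25 antibodies, association and dissociation rates derived from fitting sensorgrams to a 1:1 binding model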;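 on 100 nM Monkey IL-25-MMH Bound (RU): Real-time surface plasmon resonance on a Biacore 4000, with IL-25-MMH binding to purified anti-IL-25 antibodies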
Description: as §1

[3] = biological target: T2, monkey IL-25 expressed with a …; assay: SPR Biacore, captured mAb, 25°C;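 on 100 nM Human IL-25-MMH Bound (RU): biacore 4000 SPR with IL-25-MMH as analyte over purified anti-IL-25 antibodies, association and dissociation rates derived from fitting sensorgrams to a 1:1 binding model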;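 on 100 nM Monkey IL-25-MMH Bound (RU): Real-time surface plasmon resonance on a Biacore 4000, with IL-25-MMH binding to purified anti-IL-25 antibodies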
Description: as §1

Row | 100 nM Human IL-25-MMH Bound (RU) [1] [RU] | Kd [1] [nM] | koff [1] [s⁻¹] | kon [1] [M⁻¹ s⁻¹] | t½ [1] [h] | 100 nM Human IL-25-MMH Bound (RU) [2] [RU] | Kd [2] [nM] | koff [2] [s⁻¹] | kon [2] [M⁻¹ s⁻¹] | t½ [2] [h] | 100 nM Monkey IL-25-MMH Bound (RU) [3] [RU] | Kd [3] [nM] | koff [3] [s⁻¹] | kon [3] [M⁻¹ s⁻¹] | t½ [3] [h] | Binder
1 | 39 | 61.4 | 0.00844 | 137000 | 0.0233 | 32 | 36.2 | 0.0029 | 80200 | 0.0667 |  |  |  |  |  | H2M10690N (antibody, V domains shown, also called H2aM10690N) VH: QVQLVQSGAEVKKPGASVKVSCKASGYTFTSYGISWVRQAPGQGLEWMGWISAYNGNTNYAQKLQGRVTMTTDTSTSTAYMELRSLRSDDTAVYYCARVPITGTTWFDPWGQGTLVTVSS VL: not shown
2 | 74 | 0.0304 | 4.8e-05 | 1.58e+06 | 4.02 | 56 | ≤ 0.0142 | ≤ 1e-05 | 706000 | 19.2 | 58 | ≤ 0.00965 | ≤ 1e-05 | 1.04e+06 | 19.2 | H4H10883P (antibody, human IgG4, V domains shown) VH: QVQLQESGPGLVKSSETLSLTCTVSGGSISSYYWSWIRQPPGKGLEWIGFIYYSGSTNYNPSLKSRVTFSVDTSKNHFSLKLNSVTATDTAVYYCARHYFDSGTYELGPFDYWGQGTLVTVSS VL: DIVMTQSPDSLAVSLGERATINCKSSQNILLTSSNKNYLTWYQQKPGQPPKLLIYWASIRESGVPDRFSGSGSGTDFTLTISSLQAEDVALYFCQQYYITPFTFGPGTKVDIK
3 | 48 | 0.218 | 0.000226 | 1.04e+06 | 0.85 | 39 | 0.126 | 7.87e-05 | 623000 | 2.45 | 42 | 0.0749 | 8.43e-05 | 1.13e+06 | 2.28 | H4H10897P (antibody, human IgG4, V domains shown) VH: QVQLQESGPGLVKPSETLSLTCTVSGGSISDYYWSWIRQPPGKGLEWIGHIYYSGSTNHNPSLKSRVAISVDTSKNQFSLRLYSVTAADTAVYYCARDGYSSSSGFYYFGMDVWGQGTTVTVSS VL: DIQLTQSPSFLSASVGDRVTITCWASQDINSYLAWYQQKPGKAPKLLIFAASTLQGGVPSRFSGSGSGTEFTLTISSLQPEDFATYYCQHLSSFPPTFGQGTRLEIK
4 | 47 | 0.0375 | 4.45e-05 | 1.19e+06 | 4.32 | 40 | 0.0883 | 6.5e-05 | 736000 | 2.97 | 43 | 0.0485 | 6.74e-05 | 1.39e+06 | 2.85 | H4H10907P (antibody, human IgG4, V domains shown) VH: EVQLVESGGGLVQPGGSLRLSCAASGFTFSNYDIHWVRQVPGKGLEWISTIGSAGDTFYPGSVKGRFTISRENAKNSLYLQMNSLRAGDSAVYYCARGDNWNYVSWFFDLWGRGTLVTVSS VL: DIQLTQSPSFLSTSVGDRVTITCWASQDISSFLAWYQQKPGKAPKLLIYAASVLQSGVPSRFSGSGSGTEFTLTISSLQPEDFATYYCQQVNSYPITFGQGTRLEIK
5 | 46 | 0.128 | 7.78e-05 | 606000 | 2.48 | 34 | 0.279 | 7.25e-05 | 260000 | 2.65 | 39 | 0.199 | 6.83e-05 | 343000 | 2.82 | H4H10863P (antibody, human IgG4, V domains shown) VH: QVQLVQSGAEVKKPGASVKVSCKASGYTFSSYGISWVRQAPGQGLEWMGWISAYNDNTQYAQKFQGRVTMTTDTSTSTAYMELRSLRSDDTAVYYCARVPLQWFGESFDHWGQGTLVTVSS VL: DIQMTQSPSSLSASVGDRVTITCRASQDINNYLNWFQQKPGKAPKLLIFSTSSLQSGVPSRFSGSGSGTDFTLTISSLQSEDFATYYCQQTFITPLTFGGGTKVEIK
6 | 60 | 0.0944 | 5.93e-05 | 628000 | 3.25 | 45 | 0.124 | 4.78e-05 | 386000 | 4.03 | 51 | 0.218 | 7.18e-05 | 329000 | 2.68 | H4H10876P (antibody, human IgG4, V domains shown) VH: QVQLVQSGAEVKKPGASVKVSCKASEYTFSNYGISWVRQAPGQGLEWLGWIGAYSGFTKYAQKVQDRITMTTDASTTTAYMELRNLRSDDTAVYYCARVGTGTDSYFDFWGQGTLVTVSS VL: DIQMTQSPSSLSASVGDRVTITCRASQNINSHLNWYQQKPGKAPKLLIYTASSLQSGVPLRFSGSGSGTDFTLTISSLQPEDFGIYICQQTYITPLTFGGGTKVEIK
7 | 49 | 0.0276 | 3.18e-05 | 1.15e+06 | 6.05 | 38 | 0.0851 | 6.38e-05 | 749000 | 3.02 | 42 | 0.0965 | 6.06e-05 | 628000 | 3.18 | H4H10871P (antibody, human IgG4, V domains shown) VH: QVQLVQSGAEVMKPGASVKVSCKSSDFAFTTYGISWVRQAPGQGLEWMGWISAYNGNTNYEQRFQGRITMTTDTSTTTVYMELRSLRSDDTAVYYCARDPDYCSSNTCSDAFDLWGQGTMVTVSS VL: DIQMTQSPSSLSASVRDRVTITCRASQGITNYLAWYQQKPGKVPKVLIYAASTLQSGVPSRFSGSGSGTEFTLAISSLQPEDVATYFCQQYGSAPWTFGQGTKVEIK
8 | 55 | 0.149 | 0.00012 | 809000 | 1.6 | 49 | 0.228 | 0.000109 | 478000 | 1.77 | 54 | 0.186 | 7.77e-05 | 417000 | 2.48 | H4H10905P (antibody, human IgG4, V domains shown) VH: QVQLVQSGAEVKKPGTSVKVSCKASGYTFTNYGISWVRQAPGQGLEWLGWISAYNDNTDYAQKLQARVTMTTDTFTSTAYMDLRSLRSDDTAVYYCARVPITGTTSSFDFWGQGTLVTVSS VL: DIQMTQSPSSLSASVGDRVTISCRASQTIYSYLNWFQQKPGKAPKLLIYDASSLQSGVPSRFSGSGSGTHFTLTISSLQPEDFATYFCQQTYSTPLTFGGGTKVEIK
